# Test results reported in the nanobody polyreactivity screen of Harvey et al. (2022).
# Assay: yeast display, Sf9 membrane polyspecificity reagent, FACS + sequencing; frameworks hold sequencing errors
# Procedure, shortened: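 A nanobody's polyreactivity label depends on the gate it was sorted from. Yeast display cells were stained with 10% biotinylated, detergent-solubilized Sf9 membrane reagent for 1 hour at 4 °C, enriched on streptavidin microbeads and sorted by FACS. The low and high (top ~1%) gates were set on anti-HA fluorescence for expression and streptavidin fluorescence for reagent binding.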
row,Sequence,polyreactivity (PSR sort gate)
1,QVQLVESGGGLVQAGGSLRLSCAASGITFTSYVMGWYRQAPGKERELVAAISRSGGSSTYYADSVKGRFTISRDNAKNTVYLQMNSLKPEDTAVYYCAADSPYTGGANVYWGQGTQVTVSS,high polyreactivity
2,QGQLEESGGGLFQAGGSLRLSCAASGRIFLYNGMGWYRQAPGKERELVAGITTGGNTNYADSVKGRFTISRDNAKNTVYLQMNSLKPEDTAVYYCAAEVIVYGWSPDYDYWGQGTQVTVSS,low polyreactivity
3,QVQLVESGGGLVQEGGSLRLSCAASGSTFLTYAMGWYRQAPGKERELVAGITRSGASTYYADSVKGRFTISRDNAKNTVYLQMNSLKTEDTAVYYCAATYISHFHRYYYWGQGTQVTVSS,high polyreactivity
4,QVQLVESGGGLVQAGGSLRLSCAASGFTFYANAMGWYRQAPGKERELVAAIDQSGTSTNYADSVKGRFTISRDNAKNTVYLQMNSLKPEDTAVYYCAADSSFYYYPLILFWGDYWGQGTQVTVSS,low polyreactivity
5,QVQLVESGGGLVQAGGSLRLSCAASGFIFYRYAMGWYRQAPGKERELVAAISSSGGSTYYADSVKGRFTISRDNAKNTVYLQMNSLKPEDTAVYYCAAEPSGKRSKFYYLGQGTQVTVSS,high polyreactivity
6,QVQLVESGGGLVQAGGSLRLSCAASGSIFAPNAMGWYRQAPGKERELVAAITYGGGRTYYADSVKGRFTISRDNAKNTVYLQMNSLNPEDTAVYYCNALFSVRGYTWRSAAQDMDYWGQGTQVTVSS,high polyreactivity
7,QVQLVESGGGLVQAGGSLRLSCAASASTFVSNAMGWYRQAPGKERELVAAISKSGGSTYYADSVKGRFTISRDNAKNTVYLEMNSLKPEDTAVYYCSKYTAISFYGQYDYWGQGTQVTVSS,high polyreactivity
8,QVQLVESGGGLVQAGGSLRLSCAASGIIFAKYAMGWYRQAPGKERELVAAISRSGGSTYYADSVKGRFTISRDNAKNTVYLQMNSLKPEDTAVYYCAAAYYRDGGDFDYWGQGTQVTVSS,high polyreactivity
9,QVQLEESGGGLVQAGGSLRLSCAASGSTLEYNVMGWYRQAPGKERELVAAFSRSGGITYYADSVKGRFTISRDNAKNTVYLQMNRLKPEDTAVYYCNRLYTRVREYESWGQGTQVTVSS,high polyreactivity
10,QVQLVESGGGLVQAGGSLRLSCAASGLTFNSYDMGWYRQAPGKERELVAAISSGGVLPNYADSVKGRFTISRDNAKNTVYLQMNSLNPEDTAVYYCNVYSWPYDYWGQGTQVTVSS,low polyreactivity
11,EVQLVESGGGLVQSGGSLRLSSAASGSIFRYYAMGWYRQAPGKERELVAAITGSTGRTYYADSVKGRFTISRDNAKNTVYLQMNSLKPEDTAVYYCAARSRYYEYDYWGQGTQVTVSS,low polyreactivity
12,QVQLVESGGGLVQAGGSLRLSCAASGFIISYYAMGWYRQAPGKERELVATINFSGAGTSYADSVKGRFTISRDNAKNTVYLQMNSLKPEDTAVYYCAARTNSPRGYGSDYWGQGTQVTVSS,high polyreactivity
13,QVQLVESGGGLVQAGGSLRLSCAASGSIFWGYAMGWYRQAPGKERELVAAIRNGGSTNYADSVKGRFTISRDNAKNTVYLQMNSLKPEDTAVYYCAKYYYYLRSARKYDYWGQGTQVTVSS,high polyreactivity
14,QVQLEESGGGLVQAGGSHRLSCAASGRTFGAYAMGWYLQAPGKEREVVAAITYRGASTYYADSVKGRFTISRDNAMYTVYLQMNSLITEDTAVYSCAAEGSIKYFVGYNWGYNYWGQGSQVTVSS,low polyreactivity
15,QVQLVESGGGLVQAGGSLRLSCAASGSTFYRYAMGWYRQAPGKERELVAAISSGGRTYYADSVKGRFTISRDNAKNTVYLQMNSLKPEDTAVYYCATSWTFRQGYNYWGQGTQVTVSS,high polyreactivity
16,QVQLVESGGGIVQAGGSLRLSCAASGSTFPPNAMGWYRQAPGKERELVAGINGSGGRTYYADSVKGRFTISRDNAKNTVYLQMNSLKPVDTAVYYCATRLRSEYYYNKWYYHWGQGTQVTVSS,high polyreactivity
17,QVQLVESGGGLVQAGGSLRLSCAASGRTVPYAMGWYRQAPGKERELVATITYRVSTYYADSVKGRFTISRDNAKNTVYLQMNSLKPEDTEVYYCNTVTYPYVPALYDYWGQGTQVTVSS,high polyreactivity
18,QVHLVESGGGIVQAGGSLRLSCAASGIIFMDNAMGWYRQAPGKERELVAAITTGGITYYADSVKGRFTISRDNAKNTVYLQMNSLKPEDTAVYYCAADNEWPRYDYWGQGTQVTVSS,low polyreactivity
19,QVQLVESGGGLVQAGGSLRLSCAASGRIFRSYAMGWYRQAPGKERELVASISWSGVSTSYADSVKGRFTISRDIAKNTVYLQMNSLKPEDTAVYFCAARSWYVGSGPFNYWGQGTQVTVSS,high polyreactivity
20,QVQLQESGGGLVQAGGILRMSCAASGTIFSEANMGWYRQAPGKERELVATIGQGSTTNYADSVKGRFTISRDNAKNTVYLQMNSLKPEETAVYYCAVVTVDAVGFVYWCQGTQVTVSS,low polyreactivity
21,QVKLVESGGGLVQAGGSLRLSCAASGFTIRSYVMGWYRQAPGKERELVAAIRRSGGSTYYADSVKGRFTISRDNAKNTVYFQMNSLKREDTAVYYCAAYIWWRDYIEFDYWGQGTQVTVSS,high polyreactivity
22,QVHLVESGGGLVQAGGSLRLSCAASGSTFDHYAMAWYRQAPGKERELVASITLSGGSTYYADSVKGRFTISRDNAKNTVYLQMNSLKPEDTAVYYCAAVVVYPYRLGYDYWGQGTQVTVSS,low polyreactivity

row,Sequence,polyreactivity (PSR sort gate)
1,QVQLVESGGGLVQAGGSLRLSCAASGRIFRYYAMGWYRQAPGKERELVAAISTAGSTYYADSVMGRFTISRDNAKNTVYLQMNSLKPEDTAVYFCAARTYRSVYGPEYGYWGQGTQVTVSS,high polyreactivity
2,QVQLVESGGGLVQAGGSLRLSCAASGITFVRNAMGWYRQAPGKEREFVAAISWSGGSTYYADSVKGRFTISRDNAKNTVYLQMNSLKPEDTAVYYCAAAYPRVTYKYGYYWGQGTQVTVSS,high polyreactivity
3,QVQLEESGGGLVQAGGSLRLSCAASGYTFYYYAMGWYRQAPGKERELVAAISRSGGSTYYADSVKGRFTISRDNAKNTVSLQMNSLKQEDTAVYYCAARRLVGAERPGYDYWGQGTQVTVSS,high polyreactivity
4,QFQLVESGGGLVQAGVSLRLSCAASGRIFSLYAMGWYRQAPGKERELVAAISYSGGSTYADSVKGRFTFSRDNAKNTVFLQMNSLKPEDTAVYYCAAEEYLAYAQFDYWGQGTQVTVSS,low polyreactivity
5,QVQLVESGGGLVQAGGSLRLSCAASGTFYYYAMGWYRQAPGKERELVAAISNGDSTTYADSVKGRFTISRDNAKNTVYFQMNSLKPEDTAVYYCAAYRYTPRTSRGYYYWGQGTQVTVSS,low polyreactivity
6,QVQLVESGGGLVQAGGSLRLSCAASGYIFQPYAMGWYRQAPGKERELVAAISWRGGSTYYADSVKGRFTISRDNAKNTVYLQMNSLKPEDTAVYYCAVDAWDTTHVYEQGAERDSWGQGTQVTVSS,low polyreactivity
7,QVQLVESGGGLVQAGGSLRLSCAASGSILIYNAMGWYRQAPGKERELVAGISRRGASTYYADSVKGRFTISRDNAKNTVYLQMNSLKPEDTAVYYCAALGKYIVAWAGDYWGQGTQVTVSS,low polyreactivity
8,QVQLVDSGGGLVQAGGRLRLSCAASGITFYYNAMGWYRQAPGKERELVATISSRGGSTYYADSVKGRFTISRDNAKNTVYLQMNSLKPEDTEVYYCNAGRSRYRWSTTGYTQVRDDYWGQATQVTVSS,high polyreactivity
9,QVQLVESGGGLVQAGGSLRLSCAASGFIFTYYAMGWYRQAPGKERELVAAISWDGGSTYYADSVKGRFTISRDNAKNTVYLQMNSLKPEDTAVYYCNRDLYGYVRYDYWGQGTQVTVSS,low polyreactivity
10,QDQLVESRGGEVQAGGSRRLRCAASGLTFLYNAMGWYRQAPGKERELVAAISQSAGSTYYADSVKGRFTISRDTAKNTVYLQLNSLKPEETAVYYFAADWDTPDLVIYDYWGQGTQVTLSS,low polyreactivity
11,QVQLVESGGGLVQAGGSLRLSCAASGRTFKRKAKGWYRQAPGKEWEFVAVITGSGGSTYYADSVKGRFTISRDNAKNTVYLQMNSLKPEDTAVYYCAAALGLRSTSWGRRGGGGDYWGQGTQVTVSS,high polyreactivity
12,QVQLVYSGGGLVQAGGSLRLSCAASGRTSWIKAMGWYRTAPGKERQLVAAIRYSGRTYYADSVKGRFTISRDNAKNTVYLQMNSLKPEDYGVYYCAAVVGGYETGRYYYWGQGTQVTVSS,high polyreactivity
13,QVQLVESGGGLVQAGGSLRLICAASGSTFQDNAMGWYRQAPGKERELVASISSVDSTNYADSVKGRFTISRDNAQNTVYLQMNSLKPEDTAVYYCNAAHPYRRVGSFTYKYDYWGQGTQVTVSS,low polyreactivity
14,QVQLVESGGGLVQAGGSLRLSCAASGLTFYRNAMGWYRQAPGKERELVAAITSRGGSTYYADSVKGRFTISRDNAKNTVYLQMNSLKPEDTAVYYCAAYSTLITGRDYGYWGQGTQVTVSS,high polyreactivity
15,QVQLVESGGGLVQAGGSLRLSCAASGFTFQKYAMGWYRQAPGKERELVAAISSSGGRTYYADSVKGRFTISRDNAKNTVYLQMNSLKPEDTAVYYCNAVPGYVYDYQYWGQGTQVTVSS,high polyreactivity
16,QVQLVESGGGLVQAGGSLRLSCAASGFTYPANAMGWYRQAPGKERELVASISGSGGRTYYADSVKGRFTISRDNAQNTVYLQMNSLKPEDTAVYYCNRYSYWYRGEYGYWGQGTQVTVSS,high polyreactivity
17,QVQLVESGGGLVQEGGSLRLSCAASGLTFYYYAMGWYRPAPGKERELVAAISRSGGSTYYADSVKGRFTISRDNAKITVYLQMNSLIPEDTAVYYCASRDHAGYYKYDYWGQGTQVTVSS,high polyreactivity
18,QVQLVESGGGLVQAGGSLRLSCAASGSNITYYAMGWYRQAPGKERELVAAINLSGDITYYADSVKGRFTISRDNAKNTVYLQMNSLKPEDTAVYYCAAESASSRPYFNSIHRRDSWGQGTQVTVSS,low polyreactivity
19,QVQLVESGGGLVQAGGSLRLSCAASGRTFQYNAMGWYRQAPGKERELVAAISWSGGSTYYADSVKGRFTISRDNAKNTVYLQMNSLKPEDTAVYYCNARTLFKWRHGHYYAYDYWGQGTQVTVSS,high polyreactivity
20,QVQLVESGGGLVQAGGSLRLSCAASGGSFYPYAMGWYRQAPGKERELLAAISWSGDITYYADSVKGRFTISRDNAKNTVYLLINSLKPEDTAVYYCAAGRVVDKDPSYFREGDYWGQGTQVTVSS,low polyreactivity
21,QVQLVESGGGLVQAGGSLRLSCAASGFTFSRYAMGWYRPAPGKERELVAAISTRGGRTYYADSVKGRFTISRDNAKNTVYLQMNSLKPEDTAVYYCAADATVGSSDYWGQGTQVTVSS,high polyreactivity
